Laboratory results: publication PMC4951284
pKd: −log10 of the molar value.

Key:
VEGFR2 (Homo sapiens) [1] = molecular target: VEGFR2 (Homo sapiens) (UniProt P35968); assay: SPR; settings: cited from earlier work
VEGFR2 (Homo sapiens) [2] = molecular target: VEGFR2 (Homo sapiens) (UniProt P35968); assay: ITC; settings: cited from earlier work
[3] = molecular target: VEGFR2 recombinant protein, intracellular domain (aa 789 to end) (UniProt P35968); assay: far-Western, overlay or dot blot; 0.5 to 8.0 ug VEGFR2 (aa 789 to end) on SDS-PAGE, transferred to PVDF; overlaid with V5-tagged L-FABP (1 ug/ml) for 12 hours; anti-V5 detection; Kd by non-linear regression (GraphPad Prism 5)

VEGF-A (from UniProt P15692)
pKd (VEGFR2 (Homo sapiens) [1]): 7.44
pKd (VEGFR2 (Homo sapiens) [2]): 7.74

Liver fatty acid-binding protein (L-FABP), V5-tagged recombinant protein expressed in Hus cells (from UniProt P07148 1-127) (natural protein)
pKd [3]: 9.60
